One block for each binder: values may come before it.
Experiments:
CD3ε/δ [1] = target: CD3ε/δ (UniProt P07766); test: SPR, antibody captured on anti-human Fc surface
CD3ε/δ [2] = target: CD3ε/δ (UniProt P07766); test: SPR

Sequence of CD3ε/δ (P07766 23-126, stated change not applied, chain 1 of 2): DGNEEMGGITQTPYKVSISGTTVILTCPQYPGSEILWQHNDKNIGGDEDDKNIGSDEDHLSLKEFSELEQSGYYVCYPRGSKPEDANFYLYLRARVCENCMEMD
Sequence of CD3ε/δ (P04234 22-105, stated change not applied, chain 2 of 2, further chain): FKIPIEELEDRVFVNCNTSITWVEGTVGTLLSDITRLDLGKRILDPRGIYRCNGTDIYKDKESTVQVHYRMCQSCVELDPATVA

Kd (CD3ε/δ [1]): 27.1 nM | koff (CD3ε/δ [1]): 0.00296 s⁻¹ | kon (CD3ε/δ [1]): 109000 M⁻¹ s⁻¹
B1: chimeric sp34 (antibody, V domains shown)
VH: EVQLVESGGGLVQPKGSLKLSCAASGFTFNTYAMNWVRQAPGKGLEWVARIRSKYNNYATYYADSVKDRFTISRDDSQSILYLQMNNLKTEDTAMYYCVRHGNFGNSYVSWFAYWGQGTLVTVSS
VL: QAVVTQESALTTSPGETVTLTCRSSTGAVTTSNYANWVQEKPDHLFTGLIGGTNKRAPGVPARFSGSLIGDKAALTITGAQTEDEAIYFCALWYSNLWVFGGGTKLTVL

Kd (CD3ε/δ [2]): 25.9 nM | koff (CD3ε/δ [2]): 0.00188 s⁻¹ | kon (CD3ε/δ [2]): 72500 M⁻¹ s⁻¹
B2: humanized sp34 scFv BG561P (Fc fusion, not shown: a dimerising Fc or GST)
scFv: EVQLVESGGGLVQPGGSLRLSCAASGFTFNTYAMNWVRQAPGKGLEWVARIRSKYNNYATYYADSVKDRFTISRDDAKNSLYLQMNSLRAEDTAVYYCVRHGNFGNSYVSWFAYWGQGTLVTVSSGGGGSGGGGSGGGGSEIVLTQSPATLSVSPGERATLSCRSSTGAVTTSNYANWVQQKPGQAPRGLIGGTNKRAPGIPARFSGSLSGDEATLTISSLQSEDFAVYYCALWYSNLWVFGGGTKVEIK
